Patent US20110144037A1 (BOARD OF REGENTS OF THE UNIVERSITY OF OKLAHOMA, published 2011)
Where no end group is shown, it is not given here. [ ]: non-standard residue; d: D form. Pip = O=C(O)[C@@H]1CCCCN1; AEEA = NCCOCCOCC(=O)O

T1: antiplasmin-cleaving enzyme (APCE) (human, UniProt Q12884 24-760, Natural plasma glycoprotein; glycans are not carried by the letters. The active enzyme is known as a homodimer; one chain is given.)
T1 construct: The range 24-760 is derived from the statement that APCE lacks the first 23 residues of FAP; also called α2-antiplasmin cleaving enzyme; APCE/FAP
T1 sequence: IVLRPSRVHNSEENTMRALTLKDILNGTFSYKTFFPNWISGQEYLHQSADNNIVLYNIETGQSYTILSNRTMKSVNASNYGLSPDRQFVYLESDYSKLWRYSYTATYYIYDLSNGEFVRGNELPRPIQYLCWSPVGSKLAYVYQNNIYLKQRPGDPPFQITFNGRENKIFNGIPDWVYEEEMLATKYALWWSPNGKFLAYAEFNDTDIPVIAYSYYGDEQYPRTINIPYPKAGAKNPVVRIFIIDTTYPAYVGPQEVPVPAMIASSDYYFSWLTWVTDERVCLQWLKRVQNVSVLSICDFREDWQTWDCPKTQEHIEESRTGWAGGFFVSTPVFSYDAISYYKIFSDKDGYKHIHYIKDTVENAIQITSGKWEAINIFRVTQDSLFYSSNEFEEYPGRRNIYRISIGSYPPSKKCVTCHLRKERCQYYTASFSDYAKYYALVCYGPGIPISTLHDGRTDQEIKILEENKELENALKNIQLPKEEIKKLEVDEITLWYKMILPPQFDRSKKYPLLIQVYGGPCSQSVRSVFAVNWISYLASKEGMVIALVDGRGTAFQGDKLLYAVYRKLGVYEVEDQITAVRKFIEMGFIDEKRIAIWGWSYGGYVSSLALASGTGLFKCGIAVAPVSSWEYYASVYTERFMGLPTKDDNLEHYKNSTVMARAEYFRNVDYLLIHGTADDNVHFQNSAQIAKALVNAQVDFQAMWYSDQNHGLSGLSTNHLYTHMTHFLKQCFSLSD


Key:
[1] = target: dipeptidyl peptidase IV (DPPIV); experiment: ratio of Ki for DPPIV to Ki for APCE/FAP
Chain of dipeptidyl peptidase IV (DPPIV) (P27487 29-766): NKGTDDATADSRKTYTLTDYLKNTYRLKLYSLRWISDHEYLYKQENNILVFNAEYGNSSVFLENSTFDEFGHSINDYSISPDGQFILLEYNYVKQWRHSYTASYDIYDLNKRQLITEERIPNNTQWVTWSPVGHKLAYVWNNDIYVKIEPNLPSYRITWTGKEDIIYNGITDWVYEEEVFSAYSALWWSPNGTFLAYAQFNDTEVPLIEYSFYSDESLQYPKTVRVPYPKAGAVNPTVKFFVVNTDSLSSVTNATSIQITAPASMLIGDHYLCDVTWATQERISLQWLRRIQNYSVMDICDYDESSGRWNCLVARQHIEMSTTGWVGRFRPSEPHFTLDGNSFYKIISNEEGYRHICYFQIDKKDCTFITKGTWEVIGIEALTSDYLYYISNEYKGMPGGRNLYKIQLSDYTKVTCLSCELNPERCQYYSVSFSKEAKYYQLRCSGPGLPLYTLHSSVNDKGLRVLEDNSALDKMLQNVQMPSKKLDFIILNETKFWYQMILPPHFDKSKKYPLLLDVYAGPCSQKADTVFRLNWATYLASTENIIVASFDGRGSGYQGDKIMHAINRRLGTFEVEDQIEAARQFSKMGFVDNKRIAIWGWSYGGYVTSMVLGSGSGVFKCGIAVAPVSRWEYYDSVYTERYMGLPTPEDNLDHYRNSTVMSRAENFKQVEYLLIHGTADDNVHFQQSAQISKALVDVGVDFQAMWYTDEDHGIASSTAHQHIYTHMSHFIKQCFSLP

[2] = target: T1, antiplasmin-cleaving enzyme (APCE); experiment: inhibition of APCE activity, AMC fluorogenic substrate
[3] = target: dipeptidyl peptidase IV (DPPIV); experiment: inhibition of DPPIV activity, AMC fluorogenic substrate
[4] = target: T1, antiplasmin-cleaving enzyme (APCE); experiment: inhibition of APCE activity, AMC fluorogenic substrate, competitive fit
Description: Enzyme assays. APCE or DDPIV was incubated in 25 mM sodium phosphate buffer, pH 7.5, containing 1.0 mM EDTA and 4% methanol in a total volume of 200 μl for 20 min at 22° C., using fluorescent substrates […]-AMC (SEQ ID NO.:4) (12.5-100 μM); […]-AMC (SEQ ID NO.:5) (12.5-100 μM); Z-Gly-Pro-AMC (25-200 μM); or GP-AMC (62.5-1000 μM). […] Fluorescence was monitored with time at excitation and emission wavelengths of 360 and 460 nm using a black-sided, 96-well plate in a BIO-TEK FL600 fluorescence plate reader. For standard curves, dilutions of AMC (7-amino-4-methylcoumarin) were prepared in the same assay buffer and corresponding fluorescence was measured. The substrates in five different concentrations were mixed with four different concentrations of inhibitors around the expected Ki values; the enzyme was added and enzymatically released AMC fluorescence was recorded. Competitive inhibition was established by Lineweaver-Burk plot. Therefore, enzyme kinetic parameters were computed by fitting data to the following equation, employing the program PRISM, GraphPad: […]

Molecule | Selectivity, Ki (DPPIV)/Ki (APCE/FAP) [1] | Ki [2] | Ki [3] | Ki [4]
Ac-Arg-Gly-Gly-DL-boroPro (peptide) | 14.9 | 22.9 nM | 341 nM | –
Ac-Arg-Gly-Gly-L-boroPro (peptide) | 18.7 | 17.2 nM | 322 nM | –
Ac-Arg-peg-D-Ala-D-boroPro (peptide) | 108 | 189 nM | 20500 nM | –
Ac-Arg-peg-D-Ala-DL(25:75%)-boroPro (peptide) | – | 7.7 nM | – | –
Ac-Arg-peg-D-Ala-DL(75:25%)-boroPro (peptide) | – | 18.3 nM | – | –
Ac-Arg-peg-D-Asp-L-boroPro (peptide) | 5.2 | 1380 nM | 7130 nM | –
Ac-Arg-peg-Gly-DL-boroPro (peptide) | 371 | 3.1 nM | 1150 nM | –
Ac-Gly-L-boroPro (peptide) | 15.2 | 20.7 nM | 314 nM | –
FG-peg-G-pyrrolidide (peptide) | – | – | – | 703000 nM
FR-peg-G-[s]fluoropyrrolidide (peptide) | – | – | – | 55300 nM
FR-peg-G-piperidide (peptide) | – | – | – | 264000 nM
FRQLTSG[Pip]NQEQV-OH (N-terminus assumed; SMILES CC(C)C[C@H](NC(=O)[C@H](CCC(N)=O)NC(=O)[C@H](CCCNC(=N)N)NC(=O)[C@@H](N)Cc1ccccc1)C(=O)N[C@H](C(=O)N[C@@H](CO)C(=O)NCC(=O)N1CCCC[C@H]1C(=O)N[C@@H](CC(N)=O)C(=O)N[C@@H](CCC(N)=O)C(=O)N[C@@H](CCC(=O)O)C(=O)N[C@@H](CCC(N)=O)C(=O)N[C@H](C(=O)O)C(C)C)[C@@H](C)O) [FRQLTS-G pipecolinyl-NQEQV] | – | – | – | 14000 nM
FR[AEEA]G[Pip]NQEQV-OH (N-terminus assumed; SMILES CC(C)[C@H](NC(=O)[C@H](CCC(N)=O)NC(=O)[C@H](CCC(=O)O)NC(=O)[C@H](CCC(N)=O)NC(=O)[C@H](CC(N)=O)NC(=O)[C@@H]1CCCCN1C(=O)CNC(=O)COCCOCCNC(=O)[C@H](CCCNC(=N)N)NC(=O)[C@@H](N)Cc1ccccc1)C(=O)O) [FR-peg-G-pipecolinyl-NQEQV] | – | – | – | 14800 nM
FR[AEEA]G[Pip]NQGQV-OH (N-terminus assumed; SMILES CC(C)[C@H](NC(=O)[C@H](CCC(N)=O)NC(=O)CNC(=O)[C@H](CCC(N)=O)NC(=O)[C@H](CC(N)=O)NC(=O)[C@@H]1CCCCN1C(=O)CNC(=O)COCCOCCNC(=O)[C@H](CCCNC(=N)N)NC(=O)[C@@H](N)Cc1ccccc1)C(=O)O) [FR-peg-G-pipecolinyl-NQGQV] | – | – | – | 14500 nM

Other lines, results leading:

Selectivity, Ki (DPPIV)/Ki (APCE/FAP) [1] | Ki [2] | Ki [3] | Ki [4] | Molecule
1080 | 5.7 nM | 6130 nM | – | Ac-Arg-(8-amino-3,6-dioxaoctanoyl)-D-Ala-L-boroPro (peptide)
1180 | 9.5 nM | 11200 nM | – | Ac-Arg-peg-D-Ala-DL(50:50%)-boroPro (peptide)
244 | 1.8 nM | 440 nM | – | Ac-Arg-peg-Gly-L-boroPro (peptide)
319 | 2.7 nM | 861 nM | – | Ac-Arg-peg-Ser-Gly-L-boroPro (peptide)
– | – | – | 53800 nM | FR-peg-G-[r]fluoropyrrolidide (peptide)
– | – | – | 67700 nM | FR-peg-G-pyrrolidide (peptide)
– | – | – | 57100 nM | FG[AEEA]G[Pip]NQEQV-OH (N-terminus assumed; SMILES CC(C)[C@H](NC(=O)[C@H](CCC(N)=O)NC(=O)[C@H](CCC(=O)O)NC(=O)[C@H](CCC(N)=O)NC(=O)[C@H](CC(N)=O)NC(=O)[C@@H]1CCCCN1C(=O)CNC(=O)COCCOCCNC(=O)CNC(=O)[C@@H](N)Cc1ccccc1)C(=O)O) [FG-peg-G-pipecolinyl-NQEQV]
